T1: AttoOxa11-modified L6-NTD mutant Q50C (Euprosthenops australis, AttoOxa11 (maleimide derivative) on the thiol of the engineered cysteine at position 50)
T1 chain: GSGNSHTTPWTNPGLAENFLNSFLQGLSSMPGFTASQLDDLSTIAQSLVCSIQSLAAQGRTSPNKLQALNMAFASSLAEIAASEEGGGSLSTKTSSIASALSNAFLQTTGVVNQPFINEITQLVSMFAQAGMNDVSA

T2: wild-type N-terminal domain of major ampullate spidroin 1 (MaSp1) from Euprosthenops australis (Euprosthenops australis), Q05H60
T2 chain: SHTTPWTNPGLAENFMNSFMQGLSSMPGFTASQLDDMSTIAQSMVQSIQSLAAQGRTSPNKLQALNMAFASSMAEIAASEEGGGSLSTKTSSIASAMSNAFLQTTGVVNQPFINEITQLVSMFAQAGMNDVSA


Experiments:
[1] = target: the molecule itself; assay: SEC; high-resolution SEC with Trp fluorescence detection, Superdex-75 Increase 10/300, 0.8 ml/min, 20 mM MES, pH 6.0, ionic strength 20 mM (KCl); elution volume against protein concentration fitted to a monomer/dimer equilibrium; dimer to monomers
[2] = target: T1, AttoOxa11-modified L6-NTD mutant Q50C; assay: MST; 40 nM AttoOxa11-modified L6-NTD Q50C with increasing concentrations of unlabelled L6-NTD, standard untreated capillaries, 50% heating power; bimolecular binding isotherm (pseudo-dimerization); settings: both partners purified
[3] = target: T2, wild-type N-terminal domain of major …; assay: SEC-MALS; 20 mM MES, pH 6.0, ionic strength 60 mM (KCl), dimer conditions; µM sample concentration; dimer to monomers; settings: remark: other sources report otherwise

Binder	Kd [1]	Kd [2]	stoichiometry N [3]
L6-NTD (MaSp1 NTD from E. australis with all six core Met mutated to Leu) (domain or fragment) GSGNSHTTPWTNPGLAENFLNSFLQGLSSMPGFTASQLDDLSTIAQSLVQSIQSLAAQGRTSPNKLQALNMAFASSLAEIAASEEGGGSLSTKTSSIASALSNAFLQTTGVVNQPFINEITQLVSMFAQAGMNDVSA	1100 nM	3600 ± 1800 nM	
wild-type N-terminal domain of major ampullate spidroin 1 (MaSp1) from Euprosthenops australis, Q05H60 24-156 (domain or fragment) SHTTPWTNPGLAENFMNSFMQGLSSMPGFTASQLDDMSTIAQSMVQSIQSLAAQGRTSPNKLQALNMAFASSMAEIAASEEGGGSLSTKTSSIASAMSNAFLQTTGVVNQPFINEITQLVSMFAQAGMNDVSA			2
